Experiment [1] addresses T1, HLA-A0201 on T2 cells (human).
T1 construct: MHC class I molecule on TAP-deficient T2 cells; also called HLA-A0201 antigen
The experiment in a line: T2 cell affinity test, 100 uM peptide, flow cytometry; FI=(MFI sample-MFI background)/MFI background. (In general: A flow cytometer gives signals particle by particle.)
Procedure: (§1) 2 duplicate wells per group were used. […] The cells were collected by centrifugation at 200 g for 5 minutes. […] The mean fluorescence intensity (MFI) was then detected and analyzed by flow cytometry (BD FACSJazz™) and its software, as shown in FIG. 1.

Experiment [2] concerns the target T1, HLA-A0201 on T2 cells. The experiment in a line: T2 cell affinity test, 100 uM peptide overnight with human b2m, anti-HLA-A0201 FITC staining, flow cytometry.
Procedure: as §1

On to KLMGIVNKV [wild-type polypeptide KLMGIVNKV (SEQ ID NO: 6)], for which the “FI (fluorescence index)” value with HLA-A0201 on T2 cells [1] was 1.89. The molecule also registered an MFI with HLA-A0201 on T2 cells [2] of 648.

B1: KLMGIVYKL polypeptide (SEQ ID NO: 4) (peptide)
peptide: KLMGIVYKL
notes: Synthetic 9-mer; also called mutated polypeptide
For B1, the “FI (fluorescence index)” value with HLA-A0201 on T2 cells [1] was found to be 2.23. The MFI with HLA-A0201 on T2 cells [2] stood at 724.

B2: KMMGIVYKL polypeptide (SEQ ID NO: 5) (peptide)
peptide: KMMGIVYKL
notes: as for B1
On to B2, for which the “FI (fluorescence index)” value with HLA-A0201 on T2 cells [1] worked out at 2.09. In the experiment with HLA-A0201 on T2 cells [2], this molecule yielded an MFI of 692.

B3: KLMGIVYKV polypeptide (SEQ ID NO: 2) (peptide)
peptide: KLMGIVYKV
notes: Synthetic 9-mer made by solid phase synthesis; It is the fragment of the mutated (N136Y) Twist neighbor protein; also called mutated polypeptide
On to B3, for which the “FI (fluorescence index)” value in the experiment with HLA-A0201 on T2 cells [1] stood at 1.97. The molecule further showed an MFI with HLA-A0201 on T2 cells [2] of 666.

For the origin of these results see US20220033438A1 (GENOIMMUNE THERAPEUTICS, published 2022).
